Consider 132 substances from patent US20250011363A1, “OPTIMIZED SHORTENED PEPTIDE THAT BINDS TO ACETYLCHOLINE RECEPTOR, AND USE THEREOF” (SKINMED CO., LTD., priority 2021, published 2025).

This experiment has as its target acetylcholine receptor (Homo sapiens, UniProt P02708). Nature of the experiment: SPR binding affinity (RU) of optimized 5mer/6mer/7mer peptides, Examples 6-7. The conditions noted are these: SPR, Resonance Units; peptides tested at 10 μM; 6mer-2 Top sequence (Table 12). Put shortly:
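SPR, peptides at 10 μM; read-out = response units (RU). Sequences drawn from top- or bottom-frequency amino acid combinations, 5mer/6mer-1/6mer-2 libraries.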
On the technique in general: Surface plasmon resonance follows binding to a sensor surface in real time, without labels.

Sequence of acetylcholine receptor (P02708 21-457): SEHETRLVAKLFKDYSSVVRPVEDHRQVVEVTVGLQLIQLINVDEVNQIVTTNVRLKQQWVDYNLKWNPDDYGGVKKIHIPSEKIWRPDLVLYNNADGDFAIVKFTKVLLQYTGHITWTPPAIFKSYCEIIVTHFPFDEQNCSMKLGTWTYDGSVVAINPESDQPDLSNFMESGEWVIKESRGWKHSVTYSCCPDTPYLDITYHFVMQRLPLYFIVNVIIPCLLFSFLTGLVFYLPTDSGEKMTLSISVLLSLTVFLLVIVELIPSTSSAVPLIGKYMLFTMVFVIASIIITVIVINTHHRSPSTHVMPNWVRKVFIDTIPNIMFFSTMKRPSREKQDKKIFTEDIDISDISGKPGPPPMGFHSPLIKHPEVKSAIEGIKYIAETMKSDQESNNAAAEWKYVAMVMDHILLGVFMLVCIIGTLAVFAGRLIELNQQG

With 6mer-2-247 (KGYQKK), the Binding affinity was 146 Ru.
The figure for 6mer-2-248 (RSYTRR) is 154 Ru.
For the substance 6mer-2-249 (RGLRKR), the Binding affinity amounted to 136 Ru.
The figure for 6mer-2-250 (KRRRKK) is 145 Ru; for 6mer-2-251 (KSQTKR) it is 142 Ru; for 6mer-2-252 (KVFRKK) it is 148 Ru.
As to 6mer-2-253 (KLRSRR), the Binding affinity is 145 Ru.
The result for 6mer-2-254 (KRIQRR) reads 148 Ru; that for 6mer-2-255 (RLRRKK), 139 Ru.
For the substance 6mer-2-256 (KSQQKR), the Binding affinity stood at 142 Ru.
Consider 6mer-2-257 (KRFCRK), for which the Binding affinity is on record as 144 Ru.
In the case of 6mer-2-258 (KRIYRR), the Binding affinity was 125 Ru.
The figure for 6mer-2-259 (RVQSKR) is 128 Ru; for 6mer-2-260 (RRFCKR) it is 142 Ru.
For 6mer-2-261 (RWYTKK), the Binding affinity is 121 Ru.
In the case of 6mer-2-262 (KWILKR), the Binding affinity worked out at 142 Ru.
Consider 6mer-2-263 (RRICKR), for which the Binding affinity is 145 Ru.
The figure for 6mer-2-264 (KSQLKR) is 127 Ru.
The figure for 6mer-2-265 (RRQTRK) is 135 Ru; for 6mer-2-266 (RWQTKK) it is 131 Ru; for 6mer-2-267 (KLYSRR) it is 141 Ru.
The figure for 6mer-2-268 (RQICKK) is 139 Ru; for 6mer-2-269 (KWVQRK) it is 123 Ru; for 6mer-2-270 (KSRLRR) it is 148 Ru.
For 6mer-2-271 (RLFQKK), the Binding affinity is given as 131 Ru.
The figure for 6mer-2-272 (KWRSRK) is 154 Ru; for 6mer-2-273 (KLRQRR) it is 131 Ru.
Regarding 6mer-2-274 (KLRTKR), the Binding affinity came out at 148 Ru.
For 6mer-2-275 (KLITRR), the Binding affinity is reported as 135 Ru.
The result for 6mer-2-276 (RLVCRK) reads 153 Ru.
With 6mer-2-277 (RLRYRK), the Binding affinity amounted to 128 Ru.
Turning to 6mer-2-278 (RQIQKK), the Binding affinity stood at 135 Ru.
With 6mer-2-279 (KSLQRK), the Binding affinity amounted to 148 Ru.
For 6mer-2-280 (KSIYRR), the Binding affinity is on record as 153 Ru.
The figure for 6mer-2-281 (KGQRKK) is 149 Ru.
6mer-2-282 (RQQYRK): the Binding affinity is 151 Ru.
As to 6mer-2-283 (KLISKR), the Binding affinity worked out at 148 Ru.
The result for 6mer-2-284 (KLRSKR) reads 151 Ru; that for 6mer-2-285 (RRIQRR), 142 Ru.
For the substance 6mer-2-286 (KRRYKK), the Binding affinity is 139 Ru.
For 6mer-2-287 (RLYLKR), the Binding affinity was determined as 124 Ru.
The figure for 6mer-2-288 (KSRLRK) is 122 Ru; for 6mer-2-289 (RLLQKK) it is 146 Ru; for 6mer-2-290 (RQLYRK) it is 135 Ru.
On to 6mer-2-291 (RRYRKR), for which the Binding affinity turned out to be 154 Ru.
The result for 6mer-2-292 (RQLCKR) reads 121 Ru.
Regarding 6mer-2-293 (KQQSKR), the Binding affinity is 153 Ru.
6mer-2-294 (KLYYRR): the Binding affinity worked out at 135 Ru.
Take 6mer-2-295 (KVRYKK): the Binding affinity is 145 Ru.
Take 6mer-2-296 (KWYRRK): the Binding affinity came to 135 Ru.
The result for 6mer-2-297 (RSLSRR) reads 139 Ru; that for 6mer-2-298 (KWICKK), 149 Ru.
The figure for 6mer-2-299 (RWYYRK) is 141 Ru; for 6mer-2-300 (RWRLKK) it is 153 Ru.
The result for 6mer-2-301 (RQVRKR) reads 122 Ru.
Consider 6mer-2-302 (KQICKK), for which the Binding affinity came to 148 Ru.
The figure for 6mer-2-303 (KVFTKR) is 126 Ru; for 6mer-2-304 (KWFYRK) it is 144 Ru.
The figure for 6mer-2-305 (KQFYKK) is 154 Ru; for 6mer-2-306 (RQFQKR) it is 141 Ru.
The figure for 6mer-2-307 (RLRSKK) is 141 Ru; for 6mer-2-308 (KGISKR) it is 148 Ru; for 6mer-2-309 (KRRRRR) it is 151 Ru.
On to 6mer-2-310 (KLFQRK), for which the Binding affinity turned out to be 149 Ru.
The result for 6mer-2-311 (KVVTRK) reads 147 Ru; that for 6mer-2-312 (KWRTKR), 121 Ru; that for 6mer-2-313 (RWRTKR), 154 Ru.
Take 6mer-2-314 (KQYCKK): the Binding affinity turned out to be 127 Ru.
The result for 6mer-2-315 (RRQRRR) reads 139 Ru.
In the case of 6mer-2-316 (KGIRRR), the Binding affinity came out at 139 Ru.
Take 6mer-2-317 (RGLYKR): the Binding affinity amounted to 135 Ru.
The result for 6mer-2-318 (RGIQKK) reads 145 Ru; that for 6mer-2-319 (RSRQRK), 137 Ru.
Turning to 6mer-2-320 (RQYRRK), the Binding affinity is given as 148 Ru.
The figure for 6mer-2-321 (KLVSRK) is 139 Ru; for 6mer-2-322 (RRYSRR) it is 148 Ru; for 6mer-2-323 (KVLLRK) it is 145 Ru.
For 6mer-2-324 (KLQSRK), the Binding affinity came to 139 Ru.
In the case of 6mer-2-325 (RVFSRK), the Binding affinity is 142 Ru.
Regarding 6mer-2-326 (RGFYKK), the Binding affinity is reported as 142 Ru.
The figure for 6mer-2-327 (KGLRKR) is 153 Ru; for 6mer-2-328 (KRYQRK) it is 131 Ru; for 6mer-2-329 (RVYTKR) it is 142 Ru.
The result for 6mer-2-330 (KQLRKK) reads 139 Ru; that for 6mer-2-331 (RWVSKK), 148 Ru; that for 6mer-2-332 (RRQYKK), 145 Ru.
The result for 6mer-2-333 (KRFRRK) reads 139 Ru; that for 6mer-2-334 (KVILRR), 146 Ru; that for 6mer-2-335 (KWRSRR), 153 Ru.
With 6mer-2-336 (KLITKR), the Binding affinity was 135 Ru.
The figure for 6mer-2-337 (KQFQKK) is 142 Ru.
As for 6mer-2-338 (RSVQKR), the Binding affinity amounted to 145 Ru.
For 6mer-2-339 (KQVYKK), the Binding affinity is recorded as 151 Ru.
With 6mer-2-340 (RRLTRR), the Binding affinity is recorded as 122 Ru.
The figure for 6mer-2-341 (KVVTKR) is 144 Ru.
As for 6mer-2-342 (KRYRKK), the Binding affinity amounted to 145 Ru.
As to 6mer-2-343 (KQISKK), the Binding affinity amounted to 146 Ru.
The result for 6mer-2-344 (KGIRRK) reads 148 Ru.
The result for 6mer-2-345 (KSRQKK) reads 148 Ru.
The figure for 6mer-2-346 (KRFSKK) is 153 Ru; for 6mer-2-347 (RRYSKK) it is 148 Ru.
6mer-2-348 (KSQLRR): the Binding affinity came out at 153 Ru.
The result for 6mer-2-349 (RRLSRR) reads 137 Ru; that for 6mer-2-350 (RGQTRK), 148 Ru.
The result for 6mer-2-351 (KLYTKR) reads 135 Ru.
The figure for 6mer-2-352 (RWFYRR) is 137 Ru.
On to 6mer-2-353 (RLQTKK), for which the Binding affinity turned out to be 137 Ru.
As for 6mer-2-354 (RWISKK), the Binding affinity is recorded as 135 Ru.
With 6mer-2-355 (RGIRKK), the Binding affinity turned out to be 124 Ru.
The result for 6mer-2-356 (RLLQRR) reads 145 Ru.
The figure for 6mer-2-357 (RGQRKK) is 151 Ru.
Turning to 6mer-2-358 (RQIYKK), the Binding affinity amounted to 154 Ru.
In the case of 6mer-2-359 (RLFCKK), the Binding affinity was determined as 136 Ru.
With 6mer-2-360 (KGVRRR), the Binding affinity is on record as 141 Ru.
The figure for 6mer-2-361 (RSFQRR) is 153 Ru; for 6mer-2-362 (RGRQKR) it is 154 Ru.
The result for 6mer-2-363 (KSIYRK) reads 147 Ru.
The result for 6mer-2-364 (KVFTKK) reads 154 Ru; that for 6mer-2-365 (RWRYRR), 121 Ru.
Take 6mer-2-366 (KQYYRR): the Binding affinity turned out to be 142 Ru.
Take 6mer-2-367 (RWRSRR): the Binding affinity is listed as 142 Ru.
The figure for 6mer-2-368 (RLRTRR) is 142 Ru; for 6mer-2-369 (KVVRRR) it is 145 Ru; for 6mer-2-370 (KSLLRR) it is 142 Ru.
The result for 6mer-2-371 (KRLSRR) reads 148 Ru; that for 6mer-2-372 (KLVQRR), 141 Ru.
Regarding 6mer-2-373 (KLIYRK), the Binding affinity is 139 Ru.
For 6mer-2-374 (KRQLKK), the Binding affinity is reported as 125 Ru.
The figure for 6mer-2-375 (RVVQKK) is 131 Ru.
The result for 6mer-2-376 (KQQCKR) reads 141 Ru; that for 6mer-2-377 (RRYCRR), 142 Ru; that for 6mer-2-378 (KRFQRK), 131 Ru.
